Test results taken from patent publication US20220306751A1 (MYTHIC THERAPEUTICS, published 2022).
Residue numbers refer to the chain shown, from its start.

T1: CD123 Protein, His Tag, Acro Biosciences Cat. No. ILA-H52H6 (Homo sapiens (Human), UniProt P26951 19-305)
T1 construct: Bought protein; not shown: His tag
T1 sequence: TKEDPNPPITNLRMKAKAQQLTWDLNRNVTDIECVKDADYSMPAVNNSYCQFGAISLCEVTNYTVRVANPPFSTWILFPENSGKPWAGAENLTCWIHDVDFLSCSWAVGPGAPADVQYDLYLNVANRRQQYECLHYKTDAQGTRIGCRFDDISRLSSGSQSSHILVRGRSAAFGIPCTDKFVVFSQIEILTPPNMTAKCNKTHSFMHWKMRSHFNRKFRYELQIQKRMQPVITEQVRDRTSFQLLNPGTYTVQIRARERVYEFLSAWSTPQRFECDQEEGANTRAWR

B1: MYT2784 (antibody, V domains shown)
VH: QVQLVQSGAEVKKPGASVKVSCKASGYIFTSSIMHWVRQAPGQGLEWIGYIKPYNDGTKYNEKFKGRATLTSDRSTSTAYMELSSLRSEDTAVYYCAREGGNDYYDTMDYWGQGTLVTVSS
VL: DIQMTQSPSSLSASVGDRVTITCRASQDINSYLSWFQQKPGKAPKTLIYHVNRLVDGVPSRFSGSGSGNDYTLTISSLQPEDFATYYCLQYDAFPYTFGQGTKVEIK
notes: IgG
B2: MYT2797 (antibody, V domains shown)
VH: B1 VH
VL: B1 VL with H50R, P95H
notes: IgG
B3: MYT2794 (antibody, V domains shown)
VH: B1 VH
VL: B1 VL with H50R, D92H
notes: IgG
B4: MYT2792 (antibody, V domains shown)
VH: B1 VH
VL: B1 VL with H50R, Q90H
notes: IgG
B5: MYT2789 (antibody, V domains shown)
VH: B1 VH
VL: B1 VL with H50R, V55H
notes: IgG
B6: MYT2787 (antibody, V domains shown)
VH: B1 VH
VL: B1 VL with H50R, R53H
notes: IgG
B7: MYT2790 (antibody, V domains shown)
VH: B1 VH
VL: B1 VL with H50R, D56H
notes: IgG
B8: MYT2786 (antibody, V domains shown)
VH: B1 VH
VL: B1 VL with H50R, N52H
notes: IgG
B9: MYT2793 (antibody, V domains shown)
VH: B1 VH
VL: B1 VL with H50R, Y91H
notes: IgG
B10: MYT2799 (antibody, V domains shown)
VH: B1 VH
VL: B1 VL with H50R, T97H
notes: IgG
B11: MYT2796 (antibody, V domains shown)
VH: B1 VH
VL: B1 VL with H50R, F94H
notes: IgG
B12: MYT2798 (antibody, V domains shown)
VH: B1 VH
VL: B1 VL with H50R, Y96H
notes: IgG
B13: MYT2785 (antibody, V domains shown)
VH: B1 VH
VL: B1 VL with H50R, V51H
notes: IgG
B14: MYT2788 (antibody, V domains shown)
VH: B1 VH
VL: B1 VL with H50R, L54H
notes: IgG
B15: MYT2791 (antibody, V domains shown)
VH: B1 VH
VL: B1 VL with H50R, L89H
notes: IgG
B16: MYT2795 (antibody, V domains shown)
VH: B1 VH
VL: B1 VL with H50R, A93H
notes: IgG
B17: MYT1414 (antibody, V domains shown)
VH: QVQLVQSGAEVKKPGASVKMSCKASHYTFTDYYMKWVKQAPGQGLEWIGDIIPSNGATFYNQKFKGKATLTVDRSISTAYMHLNRLRSDDTAVYYCTRSHLLRASWFAYWGQGTLVTVSS
VL: DFVMTQSPDSLAVSLGERATINCKSSQSLLNSGNQKNYLTWYLQKPGQPPKLLIYWASTRESGVPDRFSGSGSGTDFTLTISSLQAEDVAVYYCQNDYSYPYTFGQGTKLEIK
notes: IgG
B18: MYT1426 (antibody, V domains shown)
VH: B17 VH with H26G, I52H
VL: B17 VL
notes: IgG
B19: MYT1433 (antibody, V domains shown)
VH: B17 VH with H26G, F59H
VL: B17 VL
notes: IgG
B20: MYT1439 (antibody, V domains shown)
VH: B17 VH with H26G, K65H
VL: B17 VL
notes: IgG
B21: MYT1440 (antibody, V domains shown)
VH: B17 VH with H26G, G66H
VL: B17 VL
notes: IgG
B22: MYT1421 (antibody, V domains shown)
VH: B17 VH with H26G, Y33H
VL: B17 VL
notes: IgG
B23: MYT1416 (antibody, V domains shown)
VH: B17 VH with H26G, T28H
VL: B17 VL
notes: IgG
B24: MYT1423 (antibody, V domains shown)
VH: B17 VH with H26G, K35H
VL: B17 VL
notes: IgG
B25: MYT1420 (antibody, V domains shown)
VH: B17 VH with H26G, Y32H
VL: B17 VL
notes: IgG
B26: MYT1431 (antibody, V domains shown)
VH: B17 VH with H26G, A57H
VL: B17 VL
notes: IgG
B27: MYT1434 (antibody, V domains shown)
VH: B17 VH with H26G, Y60H
VL: B17 VL
notes: IgG
B28: MYT1442 (antibody, V domains shown)
VH: B17 VH with H26G, R98H
VL: B17 VL
notes: IgG
B29: MYT1428 (antibody, V domains shown)
VH: B17 VH with H26G, S54H
VL: B17 VL
notes: IgG
B30: MYT1429 (antibody, V domains shown)
VH: B17 VH with H26G, N55H
VL: B17 VL
notes: IgG
B31: MYT1430 (antibody, V domains shown)
VH: B17 VH with H26G, G56H
VL: B17 VL
notes: IgG
B32: MYT1422 (antibody, V domains shown)
VH: B17 VH with H26G, M34H
VL: B17 VL
notes: IgG
B33: MYT1445 (antibody, V domains shown)
VH: B17 VH with H26G, L101H
VL: B17 VL
notes: IgG
B34: MYT1432 (antibody, V domains shown)
VH: B17 VH with H26G, T58H
VL: B17 VL
notes: IgG
B35: MYT1436 (antibody, V domains shown)
VH: B17 VH with H26G, Q62H
VL: B17 VL
notes: IgG
B36: MYT1435 (antibody, V domains shown)
VH: B17 VH with H26G, N61H
VL: B17 VL
notes: IgG
B37: MYT1437 (antibody, V domains shown)
VH: B17 VH with H26G, K63H
VL: B17 VL
notes: IgG
B38: MYT1438 (antibody, V domains shown)
VH: B17 VH with H26G, F64H
VL: B17 VL
notes: IgG
B39: MYT1415 (antibody, V domains shown)
VH: B17 VH with H26G, Y27H
VL: B17 VL
notes: IgG
B40: MYT1446 (antibody, V domains shown)
VH: B17 VH with H26G, L102H
VL: B17 VL
notes: IgG
B41: MYT1418 (antibody, V domains shown)
VH: B17 VH with H26G, T30H
VL: B17 VL
notes: IgG
B42: MYT1419 (antibody, V domains shown)
VH: B17 VH with H26G, D31H
VL: B17 VL
notes: IgG

molecular target: T1, CD123 Protein, His Tag, Acro …; assay: BLI, IgG on anti-human Fc sensor, 50 nM CD123, pH 7.4 and pH 5.4
Outline: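 Single His/Ala heavy-chain CDR variants were expressed in Expi293 and captured from diluted supernatant on anti-human Fc sensors. By BLI, association with 50 nM His-tagged CD123 ran for 120 s and dissociation for 300–600 s, all in PBST pH 7.4. The full cycle was repeated separately in PBST pH 5.4.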

binding result	Binder
binds	B1
binds	B2
binds	B3
binds	B4
binds	B5
binds	B6
binds	B7
binds	B8
binds	B9
binds	B10
binds	B11
binds	B12
binds	B13
binds	B14
binds	B15
binds	B16
binds	B17
binds	B18
binds	B19
binds	B20
binds	B21

binding result	Binder
binds	B22
binds	B23
binds	B24
binds	B25
binds	B26
binds	B27
binds	B28
binds	B29
binds	B30
binds	B31
binds	B32
binds	B33
binds	B34
binds	B35
binds	B36
binds	B37
binds	B38
binds	B39
binds	B40
binds	B41
binds	B42
